Data on 21 molecules can be found in US20240239875A1 (published 2024).

Positions count from the first letter of the chain named.

First the molecules themselves.
B1: 10-I12-A (antibody, V domains shown)
VH: RVQLQQSGPELVRPGTSVKISCKASGYTFTDSYINWVTQRPGQGLDWIGWIFPGNDNTYYNEKFEGKATLTLDKSSSTAYMLLSSLTSEDSAVYFCARSGGLRLGFAYWGQGTLVTVSA
VL: NIVLTQSPASLAVSRGQRATISCRASESVDSYGHSFIHWYQQKPGQPPKILIYLASKLESGVPARFSGSGSRTDFTLTIDPVEADDAATYYCQQNNEDPWTFGGGTKLEIK
B2: 4-A15-A (antibody, V domains shown)
VH: QVQLQQSGAELVKPGASVKISCKASGNAFSSYWMNWVKQRPGKGLEWIGQIYPGDGDTNFNGRFKGKATLTADISSTTAYMLLSSLTSEDSAVYFCASGGYGSSYERDFDYWGQGTTLTVSS
VL: DIQMNQSPSSLSASLGDTITITCHASQNINVWLSWYQQKPGNIPKLLIYKASNLHTGVPSRFSGSGSGTGFTLTISSLQPEDIATYYCQQGHSYPLTFGGGTKLEIK
B3: 9-J11-A (antibody, V domains shown)
VH: QVQLQQSGAELVKPGASVKMSCMASGYTFTTYPIEWMKQIHGKSLEWIGNFHPYNDDSKYNEKFKGKATLSVEKSSSTVYLELSRSTSDDSAVYYCARGSYGPYWYFDVWGTGTTVTVSS
VL: DIQMTQSPASLSASVGETVTITCRASGDIHNYLVWYQQKQGKSPQLLVYNAKALADGVPSRFSGSGSGTQYSLKINSLQPDDFGSYYCQHFWSIPYTFGGGTKLEIK
B4: 4-K16-A (antibody, V domains shown)
VH: QIQLVQSGPELKKPGETVKISCKASGYTFTTYGMSWVKQAPGKGLKWMGWMSTYSGVPTYADDFKGRFAFSLETSASTAYLQINNLKNEDTATYFCASGDVGYWGQGTTLTVSS
VL: DIVMTQSQKFMSTSVGDRVSVTCKASQNVGTNVAWYQQKPGQSPKALIYSASYRYSGVPDRFTGSGSGTDFTLTISTVQSEDLAEYFCQQYNIYPSTFGGGTKLEIK
B5: 10-O3-A (antibody, V domains shown)
VH: QVQLKESGPGLVAPSQSLSITCTVSGFSLTNYAVHWVRQSPGKGLEWLGVIWSDGRTDYNAAFISRLSISKDNSKSQVFFKMNSLQADDTAIYYCVRIEGGSYVGWYFDVWGAGTTVTVSS
VL: DIQMTQSPSSLSASLGGTVTITCKASQDINKFIAWYQHKPGKGPRLLIHYTSTLQPGIPSRFSGSGSGRDYSFSISNLEPEDIATYYCLQYDNLLTFGAGTKLELK
B6: 4-L4-A (antibody, V domains shown)
VH: QAYLQQSGAELVRPGASVKMSCKASGYTFTSYTVHWVKQTPRQGLEWIGGIYPGNVDTSYNQNFKGKATLTVDKSSSTAYMQLSSLTSEDSAVYFCARDGYYAMDYWGQGTSVTVSS
VL: not shown
B7: 7-N20-A (antibody, V domains shown)
VH: QVQLVETGGGLVRPGNSLKLSCVTSGFTFSNYRMHWLRQPPGKRLEWIGIITDKSDNYGANYAESVKGRFAISRDDSKSSVYLEMKRLREEDTATYFCSRDGYDWYFDLWGTGTTVTVSS
VL: DIVMTQSHKFMSTSVGDRVRITCKASQDVGIVVAWYQQKPGQSPKLLIYWASTRHTGVPDRFTGSGSGTDFTLTISNVQSEDLADYFCQQYSSYPTFGGGTKLEIK
B8: 9-K4-A (antibody, V domains shown)
VH: QAYLQQSGAELVRPGASVKMSCKASGYTFPNYSFHWVKQTPRQGLEWIGAIYPGNDDTSYNQRFKGKATLTVDKSSSTAYMQLSSLTSEDSAVYFCARDYSNYPFDCWGQGTTLTVSS
VL: DIVLTQSPASLAVSLGQRATISCRASKSVSTSGYSYMHWYQQKPGQPPKLLIYLASNLESGVPARFSGSGSGTDFTLNIHPVEEEDAATYYCQHSRELPPTFGGGTKLEIK
B9: 2-H7-A (antibody, V domains shown)
VH: QAYLQQSGAELVRPGASVKMSCKASGYTFTGYTMHWVKQTPRQGLEWIGAIYPENGDTSYNQKFKGKATLTVDKSSSTAYMQLSSLTSEDSAVYFCARDGYDVLYGMDYWGQGTSVTVSS
VL: B8 VL with P100W, E109D
B10: 10-O24-A (antibody, V domains shown)
VH: B8 VH with P30T, N31S, F34M, R63K, K74R, A97T, C107Y
VL: B8 VL with S14F, K43R
B11: 3-P7-A (antibody, V domains shown)
VH: B8 VH with P30T, N31S, F34M, R63K, A97T, S101T, C107Y
VL: B8 VL with A12P, K43R, G68A, L108V
B12: 10-L12-A (antibody, V domains shown)
VH: B8 VH with P30T, N31S, F34M, D56G, R63K, A97T, C107Y
VL: B8 VL with M37L
B13: 5-P24-A (antibody, V domains shown)
VH: B8 VH with P30T, N31S, F34M, D56G, N61T, R63K, C107Y
VL: not shown
B14: 8-H3-A (antibody, V domains shown)
VH: EVQLVESGGGLVQPKGSLKLSCAASGFTFNTYAMHWVRQAPGKGLEWVARIRSKSSNYATYYADSVKDRFTISRDDSQSMLYLQMNNLKTEDTAMYYCVRDHDYYGSSYWFTYWGQGTLVTVSA
VL: DVVMTQTPLSLPVSLGDQASISCRSSQSLVHDNGNTYLHWFLQKPGQSPKLLIYKVSNRFSGVPDRFSGSGSGTDFTLKISRVETEDLGVYFCSQSTHVPWTFGGGTKLEIK
B15: 8-L17-A (antibody, V domains shown)
VH: B14 VH with T60R, T112A
VL: B14 VL with D32N, F41Y, T85A
B16: 7-B10-A (antibody, V domains shown)
VH: B14 VH with T60R, D76E, T112A
VL: B14 VL with R24S, D32N, F41Y, T85A
B17: 3-E2-A (antibody, V domains shown)
VH: EVQLQQSGPELVKPGASVKISCKASGYTFTDYYMNWVKQSHGKSLEWIGDINPNNGGTSYTQKFKGKATLTVDKSSSKAYMELRSLTSEDSAVYYCARRGDGHYGGFTYWGQGTLVTVSA
VL: not shown
B18: 10-L24-A (antibody, V domains shown)
VH: B17 VH with P53S, S59T, T61D, K74R, K78T, Y104F
VL: not shown
B19: 2-O12-A (antibody, V domains shown)
VH: B17 VH with P53S, S59T, T61D, K74R, K78T, Y104F
VL: not shown
B20: 8-H5-A (antibody, V domains shown)
VH: QVTLKESGPGILQSSQTLSLTCSLSGFSLSTSGMGVSWVRQPSGKGLEWLAHIYWDDDKRYTPSLKSRLTISTDSSRKQVFLKITSVDTADTATYYCARRDLHDYDGWFAYWGQGTLVTVSA
VL: B4 VL with S14A, Y53F, T63S, T77N, I93S, S96L, G100S
B21: 4-M3-A (antibody, V domains shown)
VH: EVQLQQSGPELVKPGDSVKISCKASGYSFTGYFMNWVMQSHGKSLEWIGRINPNNGETFYNQKFKGKATLTVDKSSDTAHMELRSLTSEDSAVYYCARGGTGTGWGQGTTLTVSS
VL: DILMTQSPSSMSVSLGDTVSITCHASQGISSNIGWLQQKPGKSFKGLIYYGTNLEDGVPSRFSGSGSGADYSLTISSLESEDLADYYCIQYAQFPYTFGGGTKLEIK

One test deals with T1, SARS-CoV-2 prefusion stabilized trimer protein (WIV02 isolate spike protein) (UniProt P0DTC2 14-1213). The test can be described thus: ELISA.
Regarding B1, the midpoint of the response, the EC50, lay at 64400 pM.
On the same count and under the same terms, the same measure for B2: 340 pM; for B3: 220 pM.
Same read-out and setting: the same measure for B4: 1010 pM; for B5: 3370 pM.

The target in the next test is T1, SARS-CoV-2 prefusion stabilized trimer …. Nature of the test: ELISA. The source holds these as a separate data set.
B1 registered an EC50 of 64400 pM.
Still for that read-out and setting: the same measure for B6: 370 pM; for B2: 330 pM.
The same measure, in the same setting: the same measure for B7: 240 pM; for B8: 1130 pM.
On the same count and under the same terms, under B9 stands 130 pM.
B10 came in with an EC50 of 1070 pM.
Same read-out and setting: under B11 stands 38100 pM; under B12, 110 pM.
Still for that read-out and setting: under B13 stands 290 pM.
Molecule B14 had an EC50 of 270 pM.
Still for that read-out and setting: under B15 stands 270 pM; under B16, 160 pM.
On the same count and under the same terms, the same measure for B17: 870 pM; for B18: 920 pM.
In turn, B19 showed an EC50 of 840 pM.
On the same count and under the same terms, the same measure for B3: 220 pM; for B4: 1040 pM.
On the same count and under the same terms, the same measure for B20: 80 pM; for B21: 1940 pM.
In turn, B5 displayed a concentration giving a half-maximal response (EC50) of 3470 pM.

For the next test, the target named is SARS-CoV-2 receptor binding domain (UniProt P0DTC2 319-541). The test can be described thus: ELISA. (In general: ELISA stands for enzyme-linked immunosorbent assay.)
In turn, B6 displayed an EC50 of 220 pM.
The same measure, in the same setting: the same measure for B8: 730 pM.
As for B9, the EC50 is 80 pM.
On the same count and under the same terms, the same measure for B10: 3070 pM; for B11: 2930 pM.
As to B12, the EC50 came to 130 pM.
Molecule B13 registered an EC50 of 120 pM.
The same measure, in the same setting: the same measure for B14: 190 pM.
B15 displayed an EC50 of 270 pM.
On the same count and under the same terms, under B16 stands 80 pM; under B17, 800 pM.
On the same count and under the same terms, under B18 stands 310 pM; under B19, 220 pM; under B20, 130 pM.
In turn, B21 displayed an EC50 of 260 pM.

Broadly, the EC50 is the midpoint of the concentration-response curve. Lower therefore signals a more potent agent.
